Experimental data from the DeepSol protein solubility set.

Experiment: soluble on expression in E. coli; label from the status in PepcDB or PDB records

Row | Sequence | soluble on expression in E. coli
1 | MYAALFPGQGSHRVGMGRALYEASPAAKEVLDRAEAALPGLLKLMWEGPEEALTLTENQQPALLAAGYAAYRAFLEAGGKPPALPEGHSLGEWTAHVAAGTLELEDALRLVRLRGRYMQEAVPVGEGAMAAVLKLPLEEIQKALEGLEGVEIANLNAPEQTVISGRRQAVEEAAERLKERRARVVFLPVSAPFHSSLMAPARKRLAEDLAQVPLRRPRFPVYSNVTARPEEDPERIRALLLEQITAPVRWVEILRDMEARGVKRFLEFGSGEVLKGLVLRTLKEAEALSVQDPDSLRKALEVERA | soluble
2 | MYADEVDKDRRTFKKNFSSARGSGIDGKWKRDMFQTANRSPKQNFTTKRRAQTNFVTKAGAAAAGLATRNISTASIRGRTAPAVVREIHTGPSTLIIKNLATTVTQEDLEELFEQYEPELVQLHYGPTGESNGCADLIVPHAQVAIIQKALEGVLLDGEPIEVLEANPPKQVSVFDRIKKVSRGNDFKAKNMRVVVKSKGGFQKRGARGDF | not soluble
3 | MYCIGCGAKIQTEAKNALGFLPAGALKKKIAERDQMEAVQAGDEGSEASIKTEDLYCQRCFRLRHYNEIAPTSLTDADFLRLLKEIGQHDALIVNVVDIFDFNGSLIPNLHKLTGGNDLLMVANKRDVLPKSLKVGKLTAWLREQAASRSLKPKDILVTSAQNKDDVAELMEAIEYYRRGRDVYVVGVTNVGKSTLINAIIKSASGSEDVITTSRFPGTTLDKIEIPLDEDSALIDTPGIIHRGQIAHYLEPEDLKYVSPRKEIKPKTYQLDPEQTLFFGGLARFDFISGERQGMTAYFDNEINVHRTKLEGATEFYEKHKGELLAPALVGAKLVRREFKITDKSDIVFSGLGWVRVPQKAVVAAWVPEGVDVVVRKALIGLEHHHHHH | soluble
4 | MYDVVGVRFKKAGKVYYFDPNQFDISENEFVIVETVRGIEYGKVVITKKQVDENDVVLPLKKVIRIANENDRTIVEENKHAAKEAYQVCQQKVVEHNLDMKLVDVEYTFDRNKIIFYFTADGRIDFRELVKDLAAIFRTRIELRQIGVRDEAKMLGGIGPCGRMLCCSTFLGDFEPVSIKMAKDQNLSLNPAKISGLCGRLMCCLKYENDEYEAAKEQLPDLDQRIQTPHGTGRVIGLNILERLIQVELVDKERIVEYTLDELVNKGVVSSQTTDLEHHHHHH | not soluble
5 | MYEAHFGLKQLPFTLTPNTSLFHGLSPHYEAIHTVLSAISMGEGIIKVTGEVGTGKTLVCRMLINELPSNVELLYLPNPVMNGHELRQALAKELWLDQSGDDIALIDRIHEKIIDLHAEGKLVVVFIDEAQALSDEALETLRLFGNLETDYKKLLQIVLFGQPELDERLQQHNLRQLRQRITFSALLRALNMNETVAYIRYRIAESGCENNPFSLVQMKAIWKATNGIPRLINQVCHKSLLIAFSEQVNNVPSKAVFNAIIDTADTVKPKHYFPTFWGWRVSLEHHHHHH | soluble
6 | MYEGKVGFDFLGFTVRQFPVGKYHSGKSSSGKLLGYKTLITPSKAKLKIHAQKIGKLIDEHKAVPQSDLIAHLNPVIRGWTNYYSCVVSKRIFNQADTTLFSQLKAWAEHRHPNKSSRWSCQKYWQTVGSDNWVFKPHNQKIRLLKHRETRIVRHILEHHHHHH | not soluble
7 | MYEIIRMGVRNMLITFHSKVAAEVLMRTDDAAPLLRAAGKSFRDAIPERGVFTADQLQSAITGLERAIAAADRSPPDDDEPHPDKEPVHPIELAVGLHQRAFPLLDMMRKTAAAGADLTWEVSRGW | not soluble
8 | MYGPGYAPYYGSPYGDPCYGPAYGPAYGPTYVQPIAQPVYVHDTRAEEACCAGACCMALFCCCAMNS | soluble
9 | MYKHIVKRGETIASIARDYRTSVEALLRANGLTAASVIFPGQEIVIPHLPPKGSIPYTIHISISRRQLTLKHRGRTIRTYPIGVGKMVTATPVGDFVIVNRQPNPGGPFGAMWLSLSKIHYGIHGTNDPSSIGKYVSKGCIRMHNKDVLELASIVPNGTEVFIRP | not soluble
10 | MYKTFYSLSREPFAKETDPSEAYQGAAFQEALRALEYVKRTRGIGLLIGEPGAGKTFALRALKESLNPSLYHVVYFPLSTGGVMDFYRGLALGLGEEPKYRKVDLFRQIQQAIERLHHERRITPVFILDEMHLAKDAFLQDIAILFNFEMDSTNPFVLILAGLPHLQGKLRLNQHRPLDQRIIMRYRMGPMEKEEVAGYIEHRMKQAGAKHPIFTPSALEAIALQSRGWPRVINTLATTCLLYGHQLKKDVIDEEVVRMAAEEMGY | not soluble
11 | MYLGRHFLAMTSKALFDTKILKVNPLSIIFSPDAHIDGSLPTITDPETEAALVEAARIIRDTDETVAFPTETVYGLGGSALNDNSVLSIYRAKNRPSDNPLITHVSSIDQLNRKVFNQPHLSGTSLFDNIPSIYRPLISSLWPGPLTILLPVPSSEHSALSKLTTADQPTFAVRIPANPVARALIALSDTPIAAPSANASTRPSPTLASHVYHDLKDKIPIILDGGACKVGVESTVVDGLCNPPTLLRPGGFTYEEIVKLGGEAWSLCKVENKKTVEKGEKVRTPGMKYRHYSPSAKVVLLVPHCEGDGILKGVDRMERLKRLIETELKANSNIKKIAILTSLKLRDSDLQSKIFNEPDFSSKTFIIERLGQSGEEIQTNLFAALRKVDENDKVDLIFVEGINEEGEGLAVMNRLRKAAANNCIQF | not soluble
12 | MYLIEPIRNGKRITDGAVALAMQVYVQENLFLDDDILFPYYCDPKVEIGKFQNAVVETNQEYLKEHHIPVVRRDTGGGAVYVDSGAVNICYLINDNGIFGDFKRTYQPAIEALHHLGATEVEMSGRNDLVIDGKKVSGAAMTIANGRVYGGYSLLLDVDFEAMEKALKPNRKKIESKGIRSVRSRVGNIREHLAPQYQGITIEEFKDLMVCQLLQIETISQAKRYDLTEKDWQQIDALTERKYHNWEWNYGNAPQYRYHRDGRFTGGTVDIHLDIKKGYIAACRIYGDFFGKADIAELEGHLIGTRMEKEDVLATLNAIDLAPYLGAITAEELGDLIFS | soluble
13 | MYLPAHFAETRPEELARIIRAHPLGMLVTQDAQGLDADHLPFEFDPDAGPHGTLIAHVARANTLWQRCPDGSAVMVVFRGAEGYISPNWYPSKHEAHRQVPTWNYEVVHAHGTLAVRDDERFVRGVVARLTRRHEAGEPRPWKMTDSTPEYIDSMLRNIVGIEVAITSLVGKRKLSQNKDERDRLGAVQALQARGQDTLAQSMARAELEHHHHHH | not soluble
14 | MYNISFTPDRPLTYHLEDDQSLARLSLVPGRGGLVTEWTVQGQPILYFDRERFQDPSLSVRGGIPILFPICGNLPQDQFNHAGKSYRLKQHGFARDLPWEVIGQQTQDNARLDLRLSHNDATLEAFPFAFELVFSYQLQGHSLRIEQRIANLGDQRMPFSLGFHPYFFCREKLGITLAIPANDYLDQKTGDCHGYDGQLNLTSPELDLAFTQISQPRAHFIDPDRNLKIEVSFSELYQTLVLWTVAGKDYLCLEPWSGPRNALNSGEQLAWVEPYSSRSAWVNFQVSTELEHHHHHH | soluble
15 | MYRFLSGIKVVEIAGLAPVPHCGMMLADFGADVTVIDKKNPAIEQRLNRGKTMKQLDLKNPEDIKKVRDLCQTSDVLLDPYRPGTLEKMGLDPSTLWNNNKGLIICKISGYGQTGRMSQETGHDINYVALSGMLPTFSGVNATRPWPPANMLADFAGGGLSAAFGILSAIYARSHNGGKGCLLDCSMTEGVAYLSSFVQHYYDQPNLFTDKYALFSGECPIYRTYKTKDDKFVAVGAVEPKFYQNLFKLLNVDGRDLFVNPGKITEDLESRFLQKTRDKWANIFKGQECCVTPVLDIHEVGSYGQHVDRNSFTKTSSNWIANPSPRVWTQDELAALSSKK | not soluble
16 | MYRISQLAELVGLSRTTLLYYEKLGLIKGERLNNGYRQYSEKDAQRLVLLQNLQAGGLTLKECQACLDAKVNREVLVERLEQLDQEIEQKQNSRQLLAALLGESSLTDWHESLDQLAPEAHIEWLMKQGFDEKQAMRLKWLSKDMNEHERYMQDFDLIFKELERWGPGSESDTLKALQKVPNKSMTLLEIGCGQGIATELFARHTDAMITAVDNEEFALKHLMEKMQQNGLEDKITTVCADMAKMPFETKSFDLIWSEGSAYIMGVQNALKAWKPLLSEDGVLVVSDLVWSTDKPSEGALSFWKKEYPDMVSVSERIKHAQQAGYEVIEHFSLSDAAWEAYYHPLIERLDTLKDKLIDSPVLIDFENEITAFKQRANEFDYEIFILRSR | not soluble
17 | MYRSFFYPTRLALLAVGRNFMPMAWWMPASKEPFRFLLAVDRKNHTLSLLRELSEAALAFYPWEERAWVVRAGYLSGGRVDKARRLGVPLRPACCLAHTQVPEGALAVYEMRVSEWPWDGDHALFMGEVVHVEGSAEAKERPILFLGFRDFATLGERWRFRPGGAKPLPREERGKP | soluble
18 | MYRVFVFDLDGTLLNDNLEISEKDRRNIEKLSRKCYVVFASGRMLVSTLNVEKKYFKRTFPTIAYNGAIVYLPEEGVILNEKIPPEVAKDIIEYIKPLNVHWQAYIDDVLYSEKDNEEIKSYARHSNVDYRVEPNLSELVSKMGTTKLLLIDTPERLDELKEILSERFKDVVKVFKSFPTYLEIVPKNVDKGKALRFLRERMNWKKEEIVVFGDNENDLFMFEEAGLRVAMENAIEKVKEASDIVTLTNNDSGVSYVLERISTDCLDE | soluble
19 | MYRVLLSGAAGSGKGTIARMLVREFEPLGFNYFAAGDFIRDHIARGTEFGVRAQSFLNKGEHVPDSILNGAILAEMLKAGPRVVLDGYPRNMSQLKMVEEQAPLNLIVELKVPRKVLIDRLSKQLVHPASGRAYNLEVNPPKEEGKDDITGEPLFKRSTDQLEVARRRLEVYDKTENKVLDYYKKQNKCITMSGESSKAVFESVAEVMRRDLLTTTPRTAYA | not soluble
20 | MYSISFQEDSLLPRERLAKEGVEALSNQELLAILLRTGTRQASVFEIAQKVLNNLSSLTDLKKMTLQELQSLSGIGRVKAIELQAMIELGHRIHKHETLEMESILSSQKLAKKMQQELGDKKQEHLVALYLNTQNQIIHQQTIFIGSVTRSIAEPREILHYAIKHMATSLILVHNHPSGAVAPSQNDDHVTKLVKEACELMGIVLLDHLIVSHSNYFSYREKTDLI | not soluble
21 | MYVALWYKHGKPIHGRSWNNGGVVECSFPYKEAELTTKQQLEGQIQVLQYVGDHNNQGFWYEWIKYKDRIEKIDDKHQLVRCGDSFPIFWKRKEGNLLGYVDNKTEEGWFSFNGKVIKQVGPQLNDMYIITRNCVGGPPYCECENCPKLPPPPPIPPPGPPPPRVMHDEWIDIREGDPWPTRKLVKALDKSLDTLPGVSADQYVALWYMQGEPVMGRVWNEGGKVAANFSWFNNEYCKNVGSIQLLVRLGPHVVGYEYGWIPFPEAANFDAGKIWKPVHVNNHKGDISVGVVNLPGGKQILAKVDVRNESYGYGYQGKEHSARGPACASSVTVLCRKALPGYQLDG | not soluble
22 | MYVQGKIGLDQLAEAERLHATLCREVQQRLDIRLRAHRAVLDELNERLADKLFCNFSVFQSIPDAWAIDQIFPVMPLQRLGEEPTRRAVIQDMTCDSDGRINAYIDRQSIENTLRMHAPAPGEPYLIGFFLVGAYQEILGDMHNLFGDTHSVDVELDGAGGYTFTHTRRGDGADDLLRYVHIDPDELERLEHHHHHH | not soluble
23 | MYYQQALMRSTVKSSVSLGGIVKYSEQFSSNDAIMSGCLPSNPWITDDTQFWDLNAKLVEIPTKMRVERWAFNFSELIRDPKGRQSFQYFLKKEFSGENLGFWEACEDLKYGDQSKVKEKAEEIYKLFLAPGARRWINIDGKTMDITVKGLKHPHRYVLDAAQTHIYMLMKKDSYARYLKSPIYKDMQAKAIDPQETTKKSSTLPFMRRHLRSSPSPVILRQLEEEAKAREAANTVDITQPGQHMAPSPHLTVYTGTCMPPSPSSPFSSSCRSPRKPFASPSRFIRRPTICPSPILVVLDSSSGLEQKGECSWSGANPGPSVTDSSEASRDTSWTRSRPRAPLKARMALSFSRFLRRGCLASPVFARVSPKCPAVSHGRVQPLGDVGQQLPRLKSKRVANFFQIKMDVPTGSGTCLMDSEDAGTGESGDRATEKEVICPWESL | not soluble
